Measured values: patent publication US6716816
Where no end group is shown, it is not given here. [ ]: non-standard residue; d: D form. Aib = CC(C)(N)C(=O)O

Molecular target: T1, lecithin:cholesterol acyltransferase (LCAT), purified from human plasma (human, UniProt P04180 25-440)
T1 sequence (looked up): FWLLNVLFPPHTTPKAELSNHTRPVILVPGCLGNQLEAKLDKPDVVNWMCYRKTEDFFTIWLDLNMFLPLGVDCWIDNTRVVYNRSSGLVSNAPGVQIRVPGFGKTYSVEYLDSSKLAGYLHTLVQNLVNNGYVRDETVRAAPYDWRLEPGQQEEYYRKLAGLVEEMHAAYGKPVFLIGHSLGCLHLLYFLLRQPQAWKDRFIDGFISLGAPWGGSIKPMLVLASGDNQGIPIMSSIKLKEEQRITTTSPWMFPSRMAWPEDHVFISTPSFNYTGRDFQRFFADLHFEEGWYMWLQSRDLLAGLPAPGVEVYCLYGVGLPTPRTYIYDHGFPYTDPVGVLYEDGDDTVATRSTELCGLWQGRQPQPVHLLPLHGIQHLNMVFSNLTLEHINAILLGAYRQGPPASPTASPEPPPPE
Assay: cell-based or functional assay

ACTIVITY (%) LCAT: 9%
Binder: PVLDEFRDKLNE[Aib]LEALKQKLK [peptide 78]
